The values below come from PMC5240567, “New Insights into Cooperative Binding of Homeodomain Transcription Factors PREP1 and PBX1 to DNA”.

For series [1], the target named is T1, PREP1hd (UniProt P55347).
T1 sequence: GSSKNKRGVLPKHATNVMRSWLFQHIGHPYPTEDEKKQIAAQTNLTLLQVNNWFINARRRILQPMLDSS
Briefly: fluorescence polarization. Particulars: FP and EMSA: 20 mM Na/K phosphate pH 7.2, 150 mM NaCl, 5% glycerol, 1 mM TCEP, room temperature (FP 9 nM DNA, 30 min; EMSA gel run at 4 C in 0.5x TBE); NMR: …. Background: Fluorescence polarisation rises when a labelled molecule tumbles more slowly, as on binding a larger partner.

For series [2], the target named is T2, HOXB1HD (UniProt P14653 171-266). Description: EMSA; FP and EMSA: 20 mM Na/K phosphate pH 7.2, 150 mM NaCl, 5% glycerol, 1 mM TCEP, room temperature (FP 9 nM DNA, 30 min; EMSA gel run at 4 C in 0.5x TBE); NMR: 20. Particulars: protein: recombinant; tags: GST cleaved (pGEX-6P); label: 5' 6-FAM (FP); unlabeled in EMSA. For orientation: In EMSA bound probe runs differently from free probe, usually more slowly.

Series [3] concerns the target T3, PREP1HD (UniProt P55347 240-344).
T3 sequence: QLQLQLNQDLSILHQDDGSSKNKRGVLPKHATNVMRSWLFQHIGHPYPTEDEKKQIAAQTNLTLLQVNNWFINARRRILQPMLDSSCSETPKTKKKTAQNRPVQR
Briefly: fluorescence polarization; FP and EMSA: 20 mM Na/K phosphate pH 7.2, 150 mM NaCl, 5% glycerol, 1 mM TCEP, room temperature (FP 9 nM DNA, 30 min; EMSA gel run at 4 C in 0.5x TBE); NMR: 20. Particulars: protein: recombinant, tags: GST cleaved (pGEX-6P), label: 5' 6-FAM (FP).

Another series has as its target T4, PBX1HD (UniProt P40424 227-317).
T4 sequence: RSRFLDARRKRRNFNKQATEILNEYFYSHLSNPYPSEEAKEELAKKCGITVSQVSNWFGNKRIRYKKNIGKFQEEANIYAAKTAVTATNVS
The series is described as above. As to conditions: protein: recombinant, tags: GST cleaved (pGEX-6P).

The target of another series is T5, PREP1hd-C (UniProt P55347 257-344).
T5 sequence: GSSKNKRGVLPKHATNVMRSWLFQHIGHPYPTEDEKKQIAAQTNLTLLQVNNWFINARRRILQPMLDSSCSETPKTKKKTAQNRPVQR
The description is as above. As to conditions: protein: recombinant; tags: GST cleaved (pGEX-6P); label: 5' 6-FAM (FP); unlabeled in EMSA and NMR.

The target of the next series is T6, PREP1hd-N (UniProt P55347 240-325).
T6 sequence: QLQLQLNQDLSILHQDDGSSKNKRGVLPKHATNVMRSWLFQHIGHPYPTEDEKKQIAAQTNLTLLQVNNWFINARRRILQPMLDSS
The series is described as above. Particulars: protein: recombinant; tags: GST cleaved (pGEX-6P); label: 5' 6-FAM (FP); unlabeled in EMSA and NMR.

The target of series [4] is T2, HOXB1HD. The description is as above. Particulars: protein: recombinant, tags: GST cleaved (pGEX-6P), label: 5' 6-FAM (FP).
The target in series [5] is T7, PREP1hd (UniProt P55347 257-325).
T7 sequence: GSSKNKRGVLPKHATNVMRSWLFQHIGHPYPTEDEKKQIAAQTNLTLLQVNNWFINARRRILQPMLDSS
The description is as above. As to conditions: protein: recombinant, tags: GST cleaved (pGEX-6P), label: 5' 6-FAM (FP).

Setting [6] is: label: 5' 6-FAM (FP), unlabeled in EMSA.

T2 sequence (P14653 171-266): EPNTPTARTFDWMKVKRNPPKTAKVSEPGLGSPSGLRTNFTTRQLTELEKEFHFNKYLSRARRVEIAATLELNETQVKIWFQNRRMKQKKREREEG

With “AGGATAACCTGGGATT (double strand) [Control]”, the Kd (commonly the equilibrium constant for the complex coming apart) in the series with PREP1hd [1] worked out at 836 µM.

B1: Control (dsDNA)
DNA 1: AGGATAACCTGGGATT
DNA 2: AATCCCAGGTTATCCT
Consider B1, for which the binding result with HOXB1HD [2] is recorded as “binds”. The Kd in the series with PREP1HD [3] (unlabeled in EMSA) turned out to be 159 ± 5.2 µM; with PBX1HD (setting [6]), 2.5 ± 0.4 µM.

B2: PMH (dsDNA)
DNA 1: AGTGATTGACAGATTC
DNA 2: GAATCTGTCAATCACT
Regarding B2, the Kd in the series with PREP1HD [3] (unlabeled in EMSA and NMR) stood at 15.4 ± 1 µM; with PREP1hd-C, 15.5 ± 0.6 µM; with PBX1HD (label: 5' 6-FAM (FP), unlabeled in EMSA and NMR), 0.36 ± 0.1 µM; with PREP1hd-N it was 23.7 ± 2.6 µM; with HOXB1HD [4] (unlabeled in EMSA and NMR), 2.7 ± 0.2 µM; in the series with PREP1hd [5] (unlabeled in EMSA and NMR) it was 31.8 ± 1.5 µM.

B3: PH (dsDNA)
DNA 1: AGAGTGATTGATAAGG
DNA 2: CCTTATCAATCACTCT
On to B3, for which the Kd was found to be 23.5 ± 2 µM with PREP1HD [3] (unlabeled in EMSA), 2.1 ± 0.3 µM with PBX1HD (setting [6]), 6.2 ± 0.1 µM with HOXB1HD [4] (unlabeled in EMSA) and 51.4 ± 2.5 µM with PREP1hd [5] (unlabeled in EMSA).

B4: Control* (dsDNA)
DNA 1: CGTCAGCCCTACGGGA
DNA 2: TCCCGTAGGGCTGACG
B4: the Kd with PBX1HD (label: 5' 6-FAM) was found to be 2.1 ± 0.1 µM.

B5: PH* (dsDNA)
DNA 1: AGAGTGATTGATCGGC
DNA 2: GCCGATCAATCACTCT
B5: the Kd with PBX1HD (label: 5' 6-FAM) came to 3.3 ± 0.5 µM.
